Measurements from JP2024517985A (dated 2024).

Assays:
[1] = target: T1, 293T細胞及びTHP-1細胞の表面で過剰発現されたCD300c (UniProt Q08708 21-224, limits assumed); test: flow cytometry (MFI) on THP-1 cells overexpressing CD300c, FITC anti-human IgG (H+L)
T1 construct: whole, on cells; Expression construct not described; also called CD300c overexpressed on 293T cells; CD300c overexpressed on THP-1 cells
T1 sequence (looked up): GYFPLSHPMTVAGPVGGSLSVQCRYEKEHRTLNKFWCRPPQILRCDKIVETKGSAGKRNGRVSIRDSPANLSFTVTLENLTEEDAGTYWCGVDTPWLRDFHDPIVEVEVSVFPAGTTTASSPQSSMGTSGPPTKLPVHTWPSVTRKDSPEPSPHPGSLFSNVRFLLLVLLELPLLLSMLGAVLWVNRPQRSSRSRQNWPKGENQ

[2] = target: T2, CD300c抗原(11832-H08H、Sino Biological) (UniProt Q08708 21-183); test: SPR, CD300c immobilised on CM5 chip, CL7 as analyte 0-6.25 ug/ml
T2 construct: Bought recombinant protein; also called CD300c; CD300c antigen
T2 sequence (looked up): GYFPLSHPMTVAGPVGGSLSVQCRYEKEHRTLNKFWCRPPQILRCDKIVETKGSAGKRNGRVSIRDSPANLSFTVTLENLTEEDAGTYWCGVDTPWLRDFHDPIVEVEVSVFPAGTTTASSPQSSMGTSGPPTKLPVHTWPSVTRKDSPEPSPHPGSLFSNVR

[3] = target: T1, 293T細胞及びTHP-1細胞の表面で過剰発現されたCD300c; test: flow cytometry (MFI) on 293T cells overexpressing CD300c, FITC anti-human IgG (H+L)
[4] = target: T2, CD300c抗原(11832-H08H、Sino Biological); test: SPR, CD300c immobilised on CM5 chip, CL7 as analyte 0-6.25 ug/ml (rounded form of the same KD)

EC50 [1]: 2.6 nM
Kd [2]: 0.52 nM
EC50 [3]: 2.7 nM
Kd [4]: 0.52 nM
B1: 抗-CD300cモノクローナル抗体 CL7 (antibody, V domains shown)
VH: EVQLLESGGGLVQPGGSLRLSCAASGFTFSRYAMSWVRQAPGKGLEWVSAISGSGGSTYYADSVKGRFTISRDNSKNTLYLQMNSLRAEDTAVYYCARSSQGIFDIWGQGTLVTVSS
VL: QSVLTQPPSASGTPGQRVTISCSGNNIGTRRVHWYQQLPDTAPKLLIYSKNNRPSGVPDRFSGSKSGTSASLAISGLRSEDEADYYCAAWDDSLSGPVFGGGTKLTVL
